Measured values from US20240409645A1 (DUALYX, published 2024).
Positions count from the first letter of the chain named.

T1: human IL-2Rβ (human, UniProt P14784 27-240, limits assumed)
T1 construct: recombinant protein, coated or immobilised; also called hu IL-2R; IL-2R beta
T1 sequence: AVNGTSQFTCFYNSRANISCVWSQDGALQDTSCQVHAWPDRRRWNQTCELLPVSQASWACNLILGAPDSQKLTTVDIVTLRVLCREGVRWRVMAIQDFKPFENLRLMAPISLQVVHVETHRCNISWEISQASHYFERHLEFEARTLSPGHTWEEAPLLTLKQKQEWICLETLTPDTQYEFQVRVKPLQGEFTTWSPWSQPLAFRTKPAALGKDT

B1: FJ1427_P035MP02E01 (VHH)
VHH: EVQLVESGGGLVQIGGSLRLSCAASGRTFSSITMAYFRQVPGKEREWVAGINFSGTRTFYADSVKGRFLISRDDAKSTMYLQMNSLKPEDTAVYYCAASPRGFYGPGNALYDYWGQGTQVTVSS
notes: soluble VHH in periplasmic extract; also called clone nr
B2: FJ1427_P035MP02E05 (VHH)
VHH: B1 VHH with R45H
notes: as for B1
B3: FJ1427_P035MP02E03 (VHH)
VHH: EVQLVESGGGSVQTGGSLRLSCVVSGSHFISDVMGWYRQVPGKQRELVADMADGGSVKYGDSVKGRFTILRDSVKNTVTLQMSSLNPEDTGVYYCKAGLWITGRHFDYWGQGTQVTVTS
notes: as for B1
B4: FJ1427 P035MP02H05 (VHH)
VHH: B3 VHH with V57A, F106S
notes: as for B1
B5: FJ1427_P035MP02B03 (VHH)
VHH: QVQLVESGGGLVQTGGSLRLSCAASGSRFVSDFMGWYRQVPGKQRELVADMADGGSARYGDSVKGRFTILRDSGNSTAYLQMSSLKPEDTGVYYCKAGLWIAGRHFDYWGQGTQVTVSS
notes: as for B1
B6: FJ1427_P035MP02F06 (VHH)
VHH: B5 VHH with Q1E, V30I, D72E, S76A
notes: as for B1
B7: FJ1427_P035MP02C02 (VHH)
VHH: B5 VHH with T14P, S73N, G74M, Y79F
notes: as for B1
B8: FJ1427 P035MP02E02 (VHH)
VHH: EVQLVESGGGLVQTGGSLRLSCAASGSQFINDVMGWYRQVPGKQRELVADMDDTGSTKYADSVKGRFTILRDSVKNTAYLQMSNLKPEDTGVYYCKAGLWIKGRHSDYWGQGTQVTVSS
notes: as for B1
B9: FJ1427_P035MP02D06 (VHH)
VHH: B8 VHH
notes: soluble VHH in periplasmic extract; also called clone nr; 140
B10: FJ1427_P035MP02A05 (VHH)
VHH: B8 VHH
notes: as for B1
B11: FJ1427 P035MP02F04 (VHH)
VHH: B8 VHH with S106F
notes: as for B1
B12: FJ1427 P035MP02C03 (VHH)
VHH: B8 VHH with K58E, S106F
notes: soluble VHH in periplasmic extract; also called 14-MP02C03; clone nr
B13: FJ1427 P035MP02C05 (VHH)
VHH: QVQLVESGGGLVQTGGSLRLSCAVSGSRFISDVMGWYRQVPGKQRELVADMADGGSAKYADSVKGRFSILRDSVKNTVYLQMSSLKPEDTGIYYCKAGLWIAGRHSDYWGQGTQVTVSS
notes: as for B1
B14: FJ1427_P035MP02D04 (VHH)
VHH: B13 VHH
notes: as for B1
B15: FJ1427_P035MP02G04 (VHH)
VHH: B8 VHH with E1Q, T14A, S106F
notes: as for B1
B16: FJ1427 P035MP02D01 (VHH)
VHH: B8 VHH with E1Q, V5Q
notes: soluble VHH in periplasmic extract; also called clone nr; 100
B17: FJ1427 P035MP02G05 (VHH)
VHH: B8 VHH with M34T
notes: as for B1
B18: FJ1427_P035MP02B01 (VHH)
VHH: B8 VHH with E1Q, S106F
notes: soluble VHH in periplasmic extract; also called clone nr; 98
B19: FJ1427_P035MP02F01 (VHH)
VHH: B13 VHH with Q1E
notes: as for B1
B20: FJ1427 P035MP02A04 (VHH)
VHH: B8 VHH with A23T, K64N
notes: as for B1
B21: FJ1427_P035MP02F05 (VHH)
VHH: B13 VHH with Q1E
notes: as for B1
B22: FJ1427_P035MP02B05 (VHH)
VHH: B8 VHH with S106F
notes: soluble VHH in periplasmic extract; also called clone nr; 130
B23: FJ1427_P035MP02F03 (VHH)
VHH: EVQLVESGGGLVQAGGSLRLSCAASGGTFSSYAMGWFRQAPGKEREFVAATTRGGGRTMYAVSTEGRFTCSRDNAKNTVYLLMNSLKPEDTAVYYCAAMTSYYSGTYYPDSSDFDIWGQGTQVTVSS
notes: as for B1
B24: FJ1427_P035MP02D03 (VHH)
VHH: B23 VHH with E1Q, S17P
notes: as for B1
B25: FJ1427_P035MP02E04 (VHH)
VHH: B23 VHH with L82Q, E89K, V93I
notes: as for B1
B26: FJ1427_P035MP02A06 (VHH)
VHH: B23 VHH with E1Q, V5Q, A75D, E89K
notes: as for B1
B27: FJ1427 P035MP02H04 (VHH)
VHH: B23 VHH with E1Q, G16D, A24T, G27L, M34L, E44K, A75D, E89K
notes: as for B1
B28: FJ1427_P035MP02B04 (VHH)
VHH: B23 VHH with R19G, L82Q, E89K, V93I
notes: as for B1
B29: FJ1427 P035MP02C01 (VHH)
VHH: QVQLVESGGGLVQPGGSLGLSCAASGFTFDNYAMSWVRQAPGKGLEWVSSITGAGRGTHYADSVKGRFTISRDNAKNTLYLQMNSLKPEDTAVYYCAKYSSSTYYPPTPARGTDYRGPGTQVTVSS
notes: soluble VHH in periplasmic extract; also called clone nr; 99
B30: FJ1427 P035MP02C06 (VHH)
VHH: B29 VHH with V2L, G19E, D30S, A54F, H59D, K98R, T113R, P118Q
notes: as for B1
B31: FJ1427 P035MP02D05 (VHH)
VHH: B29 VHH with G16E, D30S, H59D, S102G, A110V, P118Q
notes: as for B1
B32: FJ1427_P035MP02C04 (VHH)
VHH: B29 VHH with G19E, D30S, A54F, H59D, A75D, K98R, T113R, P118Q
notes: as for B1
B33: FJ1427_P035MP02B06 (VHH)
VHH: B29 VHH with G16E, D30S, H59D, S102G, A110V, P118Q
notes: as for B1
B34: FJ1427_P035MP02G03 (VHH)
VHH: B29 VHH with D30S, S49A, A54F, H59D, I70V, T113R, P118Q
notes: as for B1
B35: FJ1427_P035MP02A03 (VHH)
VHH: QVQLVESGGGLVQPGGSLRLSCAASGFTFSNYAMSWVRQAPGKGLEWVSSITGAGRGTYYAESVKGRFTISRDNDKNTLYLQMNSLKPEDTAVYYCAKYDSSTFYPPTPARGIADRGQGTRVTVSS
notes: as for B1
B36: FJ1427 P035MP02E06 (VHH)
VHH: B29 VHH with L11S, G19R, D30S, S49A, A54F, H59D, K76E, N77D, T113R, P118Q
notes: soluble VHH in periplasmic extract; also called 15-MP02E06; clone nr
B37: FJ1427_P035MP02A02 (VHH)
VHH: B29 VHH with G19R, S35T, M83V, K98R, P107T, A110V, P118Q
notes: as for B1

target: T1, human IL-2Rβ; test: SPR, P.E. off-rate
Method: SPR was performed to determine dissociation rates using Biacore 3000 instrument (GE Healthcare). Briefly, human and mouse IL-2R proteins were immobilized on carboxylmethyl dextran sensor chip (CM5) at approximately 2500 RUs using amine coupling in acetate buffer (GE Healthcare). The VHH-containing P.E. were loaded with a flow rate of 30 uL/min and the off-rates were measured over a 120s period.

Binder	koff
B1	4.5e-05 s⁻¹
B2	0.00031 s⁻¹
B3	0.000169 s⁻¹
B4	0.000268 s⁻¹
B5	0.000215 s⁻¹
B6	0.000203 s⁻¹
B7	0.00057 s⁻¹
B8	0.000269 s⁻¹
B9	0.000374 s⁻¹
B10	0.000444 s⁻¹
B11	0.000343 s⁻¹
B12	0.000714 s⁻¹
B13	0.000346 s⁻¹
B14	0.000358 s⁻¹
B15	0.000295 s⁻¹
B16	0.000167 s⁻¹
B17	0.000432 s⁻¹
B18	0.000119 s⁻¹
B19	0.0003 s⁻¹

Binder	koff
B20	0.000368 s⁻¹
B21	0.000334 s⁻¹
B22	0.000292 s⁻¹
B23	0.000828 s⁻¹
B24	0.000226 s⁻¹
B25	0.000716 s⁻¹
B26	0.000484 s⁻¹
B27	0.00051 s⁻¹
B28	0.000449 s⁻¹
B29	0.000789 s⁻¹
B30	0.00217 s⁻¹
B31	0.00279 s⁻¹
B32	0.00255 s⁻¹
B33	0.0046 s⁻¹
B34	0.00293 s⁻¹
B35	0.000571 s⁻¹
B36	0.00169 s⁻¹
B37	0.00262 s⁻¹

target: T1, human IL-2Rβ; test: P.E. ELISA, coated protein
Method: In a binding ELISA, human or mouse IL-2Rα, IL-2Rβ and IL-2Rγ proteins were coated directly on maxisorp microtiter plates overnight at 4° C. Free binding sites were blocked using 4% Marvel in PBS for 1 hour. Next, 1:5 dilution of P.E. in 1% Marvel/PBS were added to wells and incubated for 1 hour. […] Binding specificity was determined based on O.D. at 450 nm values compared to negative controls.

Binder	P.E. binding ELISA OD
B1	1.11 OD450 nm
B2	0.856 OD450 nm
B3	0.242 OD450 nm
B4	0.192 OD450 nm
B5	0.383 OD450 nm
B6	0.214 OD450 nm
B7	0.401 OD450 nm
B8	0.254 OD450 nm
B9	0.298 OD450 nm
B10	0.263 OD450 nm
B11	0.516 OD450 nm
B12	0.183 OD450 nm
B13	0.237 OD450 nm
B14	0.447 OD450 nm
B15	0.549 OD450 nm
B16	0.573 OD450 nm
B17	0.567 OD450 nm
B18	0.271 OD450 nm
B19	0.469 OD450 nm

Binder	P.E. binding ELISA OD
B20	0.533 OD450 nm
B21	0.206 OD450 nm
B22	0.553 OD450 nm
B23	0.212 OD450 nm
B24	0.286 OD450 nm
B25	0.255 OD450 nm
B26	2.55 OD450 nm
B27	0.376 OD450 nm
B28	0.375 OD450 nm
B29	0.7 OD450 nm
B30	0.351 OD450 nm
B31	0.118 OD450 nm
B32	0.424 OD450 nm
B33	0.125 OD450 nm
B34	0.197 OD450 nm
B35	0.207 OD450 nm
B36	0.581 OD450 nm
B37	0.223 OD450 nm
